Experimental data as given in patent publication US20200338146A1.

Tests used:
[1] = target: AAV2 virion expressing GFP (AAV2-CMV-GFP) (AAV2) (UniProt P03135); experiment: cell-based or functional assay
[2] = target: AAV2.5T.LSV1 virion expressing GFP (AAV2.5T.LSV1-CMV-GFP); experiment: cell-based or functional assay

pooled human IgG antibodies (Gammagard IVIG)
IC50 of inhibition of GFP expression in transduced 293T cells (reciprocal dilution of the pooled human IgG antibody sample at which GFP expression is reduced by 50%) (reciprocal dilution) [1]: 104
IC50 of inhibition of GFP expression in transduced 293T cells (reciprocal dilution of the pooled human IgG antibody sample at which GFP expression is reduced by 50%) (reciprocal dilution) [2]: 9.3
